T1: native human IL-23 receptor on the surface of cultured human cells (K-562, THP-1, Jurkat) and primary human … (human, UniProt Q5VWK5 24-629)
T1 sequence (looked up): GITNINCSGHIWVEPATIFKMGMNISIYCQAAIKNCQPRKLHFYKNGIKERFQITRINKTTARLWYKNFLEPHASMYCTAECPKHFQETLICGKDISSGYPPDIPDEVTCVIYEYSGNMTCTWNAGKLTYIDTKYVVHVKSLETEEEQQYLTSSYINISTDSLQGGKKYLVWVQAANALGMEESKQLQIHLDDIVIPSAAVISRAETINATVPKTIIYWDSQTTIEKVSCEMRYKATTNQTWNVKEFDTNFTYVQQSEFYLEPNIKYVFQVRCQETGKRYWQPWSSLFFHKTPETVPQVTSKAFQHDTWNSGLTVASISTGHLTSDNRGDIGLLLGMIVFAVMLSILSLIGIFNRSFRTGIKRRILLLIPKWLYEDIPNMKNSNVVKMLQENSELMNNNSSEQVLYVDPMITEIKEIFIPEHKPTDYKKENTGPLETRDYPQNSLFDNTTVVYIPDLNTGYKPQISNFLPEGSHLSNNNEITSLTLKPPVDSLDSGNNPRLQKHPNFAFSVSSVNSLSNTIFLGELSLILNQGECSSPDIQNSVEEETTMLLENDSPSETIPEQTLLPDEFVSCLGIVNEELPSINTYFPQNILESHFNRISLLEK

T2: H-exIL-23R, N-terminally His6-tagged extracellular domain of human IL-23 receptor (residues 24 to 350) (human, UniProt Q5VWK5 24-350)
T2 construct: range 24-350; also called recombinant extracellular IL-23 receptor; not shown: N-terminal His6 tag
T2 sequence (looked up): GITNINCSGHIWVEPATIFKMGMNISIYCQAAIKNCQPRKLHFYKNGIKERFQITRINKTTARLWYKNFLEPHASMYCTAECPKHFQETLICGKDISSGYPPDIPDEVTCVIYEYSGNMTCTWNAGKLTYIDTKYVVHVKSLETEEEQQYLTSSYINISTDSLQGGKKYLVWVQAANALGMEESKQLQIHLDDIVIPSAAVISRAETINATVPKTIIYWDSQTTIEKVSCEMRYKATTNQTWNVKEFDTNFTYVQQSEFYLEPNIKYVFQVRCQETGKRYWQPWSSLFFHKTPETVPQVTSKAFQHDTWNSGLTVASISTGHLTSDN

B1: His6-REX125-TolA-AVI (designed binder)
chain: LAEAKVLANRELDKYGVSDHYKNWINPARRVRPVKWLIDAILAALPQKQAEEAAAKAAADAKAKAEADAKAAEEAAKKAAADAKKKAEAEAAKAAAEAQKKAEAAAAALKKKAEAAEAAAAEARKKAATEAAEKAKAEAEKKAAAEKAAADKKAAAEKAAADKKAAEKAAAEKAAADKKAAAEKAAADKKAAAAKAAAEKAAAAKAAAEADDIFGELSSGKNAPKTGGGAKGNNASPAGSGNTKNNGASGADINNYAGQIKSAIESKFYDASSYAGKTCTLRIKLAPDGMLLDIKPEGGDPALCQAALAAAKLAKIPKPPSQAVYEVFKNAPLDFKPGLNDIFEAQKIEWHE
modifications: in vivo biotinylated at the AviTag (BirA)
notes: also called REX-TolA-AVI; not shown: N-terminal His6 tag
B2: His6-REX115-TolA-AVI (designed binder, not shown: small tags and cut ends)
chain: LAEAKVLANRELDKYGVSDVYKNTINIAIPVRVVKRVIDWILAVLPQKQAEEAAAKAAADAKAKAEADAKAAEEAAKKAAADAKKKAEAEAAKAAAEAQKKAEAAAAALKKKAEAAEAAAAEARKKAATEAAEKAKAEAEKKAAAEKAAADKKAAAEKAAADKKAAEKAAAEKAAADKKAAAEKAAADKKAAAAKAAAEKAAAAKAAAEADDIFGELSSGKNAPKTGGGAKGNNASPAGSGNTKNNGASGADINNYAGQIKSAIESKFYDASSYAGKTCTLRIKLAPDGMLLDIKPEGGDPALCQAALAAAKLAKIPKPPSQAVYEVFKNAPLDFKPGLNDIFEAQKIEWHE
modifications: in vivo biotinylated at the AviTag (BirA)
B3: His6-REX009-TolA-AVI (designed binder)
chain: LAEAKVLANRELDKYGVSDYYKNRINPACHVLSVKSNIDWILASLPQKQAEEAAAKAAADAKAKAEADAKAAEEAAKKAAADAKKKAEAEAAKAAAEAQKKAEAAAAALKKKAEAAEAAAAEARKKAATEAAEKAKAEAEKKAAAEKAAADKKAAAEKAAADKKAAEKAAAEKAAADKKAAAEKAAADKKAAAAKAAAEKAAAAKAAAEADDIFGELSSGKNAPKTGGGAKGNNASPAGSGNTKNNGASGADINNYAGQIKSAIESKFYDASSYAGKTCTLRIKLAPDGMLLDIKPEGGDPALCQAALAAAKLAKIPKPPSQAVYEVFKNAPLDFKPGLNDIFEAQKIEWHE
modifications: in vivo biotinylated at the AviTag (BirA)
notes: as for B1
B4: DH-p19, mature p19 subunit of human IL-23 with N-terminal double-His6-TEV tag (ligand, UniProt Q9NPF7 20-189, looked up)
chain: RAVPGGSSPAWTQCQQLSQKLCTLAWSAHPLVGHMDLREEGDEETTNDVPHIQCGDGCDPQGLRDNSQFCLQRIHQGLIFYEKLLGSDIFTGEPSLLPDSPVGQLHASLLGLSQLLQPEGHHWETQQIPSLSPSQPWQRLLLRFKILRSLQAFVAVAARVFAHGAATLSP
notes: mature; not shown: N-terminal double-His6-TEV purification tag
B5: DH-MBP-p19, double His6-maltose-binding protein-p19 fusion with C-terminal 40 aa prolongation (ligand, human)
chain: RAVPGGSSPAWTQCQQLSQKLCTLAWSAHPLVGHMDLREEGDEETTNDVPHIQCGDGCDPQGLRDNSQFCLQRIHQGLIFYEKLLGSDIFTGEPSLLPDSPVGQLHASLLGLSQLLQPEGHHWETQQIPSLSPSQPWQRLLLRFKILRSLQAFVAVAARVFAHGAATLSPLEKKTCTSRASSTTTTTTEIRLLTKPERKLSWLLPPLSNN
notes: 69 kDa, soluble, E. coli BL21(DE3), Ni-NTA purified; also called soluble p19; p19-MBP fusion protein; not shown: N-terminal double His6 tag; followed by TEV site and cloning-site residues that are not pri

Key:
[1] = target: T1, native human IL-23 receptor on the …; test: cell-based or functional assay
[2] = target: T3, recombinant human IL-23R-IgG chimera (R&D Systems) (human, UniProt Q5VWK5 24-353, glycosylated); test: SPR, REX125-TolA-AVI immobilized, IL-23R-IgG chimera flowed, sodium acetate buffer pH 5.0, 25°C; more complex interaction mode
T3 construct: bought; soluble, glycosylated, secreted by an NS0-derived mouse myeloma cell line; also called IL-23R-IgG receptor chimera

[3] = target: T3, recombinant human IL-23R-IgG chimera …; test: SPR, REX009-TolA-AVI immobilized, IL-23R-IgG chimera 20-200 nM flowed, sodium acetate buffer pH 5.0, 25°C, 1:1 model, global fit
[4] = target: T1, native human IL-23 receptor on the …; test: flow cytometry on THP-1 and K-562 cells, 10 µg/ml DH-p19, anti-p19 mAb and Cy5 anti-mouse IgG
[5] = target: T2, H-exIL-23R, N-terminally His6-tagged …; test: ELISA, immobilized H-exIL-23R; confirmed in the reversed setup
[6] = target: T2, H-exIL-23R, N-terminally His6-tagged …; test: ELISA, immobilized exIL-23R (Figure 1 legend)

Binder	Th-17+ cell expansion (IL-17-producing cells) in PBMC suspensions after 3 days, normalized to IL-23 only = 1 [1]	Th-17+ cell expansion in separated T-cell samples after 3 days, normalized to IL-23 only = 1 [1]	further results
B1	0.42 normalized cell count (IL-23 only = 1)	0.65 normalized cell count (IL-23 only = 1)	Kd [2]: ~1 nM
B2	0.55 normalized cell count (IL-23 only = 1)	0.69 normalized cell count (IL-23 only = 1)	
B3	0.62 normalized cell count (IL-23 only = 1)	0.8 normalized cell count (IL-23 only = 1)	Kd [3]: 1.3 nM
B4			binding result [4]: binds; binding result [5]: binds
B5			binding result [6]: binds

From patent EP2922560B1 (Biotechnologicky Ustav AV CR, v.v.i., dated 2017)
